In article PMC9482650, “Quantitative fragmentomics allow affinity mapping of interactomes” (Nature Communications, 2022):
Substitutions are numbered along the chain they refer to. Values belong to the binder of their own block, whether it stands above or below them.

Experiments:
Test in all cases: holdup assay
Parameters in all cases: key: below the threshold = too weak to quantify, mostly under pKd 3.1 to 4
MPDZ_5, O75970 = biological target: T1, MPDZ_5, O75970
T1 sequence (O75970 695-796, limits assumed, looked up): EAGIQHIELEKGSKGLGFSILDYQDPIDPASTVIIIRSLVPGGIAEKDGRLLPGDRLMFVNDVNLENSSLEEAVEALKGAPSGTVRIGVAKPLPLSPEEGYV

GRASP, Q7Z6J2 = biological target: GRASP, Q7Z6J2
Sequence of GRASP, Q7Z6J2 (Q7Z6J2 96-193): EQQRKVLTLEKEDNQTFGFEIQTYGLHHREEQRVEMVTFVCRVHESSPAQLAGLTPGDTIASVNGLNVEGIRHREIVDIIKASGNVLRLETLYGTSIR

GRIP2_3, Q9C0E4 = biological target: GRIP2_3, Q9C0E4
Sequence of GRIP2_3, Q9C0E4 (Q9C0E4 238-339): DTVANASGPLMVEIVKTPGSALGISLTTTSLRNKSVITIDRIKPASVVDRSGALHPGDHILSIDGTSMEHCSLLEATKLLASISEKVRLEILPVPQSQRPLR

SNTG2, Q9NY99 = biological target: T2, SNTG2, Q9NY99
T2 sequence (Q9NY99 68-166, limits assumed, looked up): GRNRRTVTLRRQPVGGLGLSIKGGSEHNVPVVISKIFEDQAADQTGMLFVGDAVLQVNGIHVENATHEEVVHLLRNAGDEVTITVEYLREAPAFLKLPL

MAGI3_2, Q5TCQ9 = biological target: MAGI3_2, Q5TCQ9
Sequence of MAGI3_2, Q5TCQ9 (Q5TCQ9 398-503): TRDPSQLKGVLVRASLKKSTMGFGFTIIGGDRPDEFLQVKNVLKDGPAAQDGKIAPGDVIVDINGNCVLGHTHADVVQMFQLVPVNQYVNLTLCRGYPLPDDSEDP

GRIP2_5, Q9C0E4 = biological target: GRIP2_5, Q9C0E4
Sequence of GRIP2_5, Q9C0E4 (Q9C0E4 544-642): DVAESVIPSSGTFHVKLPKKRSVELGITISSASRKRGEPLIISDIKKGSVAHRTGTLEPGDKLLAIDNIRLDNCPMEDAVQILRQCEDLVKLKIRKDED

PARD3B_1, Q8TEW8 = biological target: T3, PARD3B_1, Q8TEW8
T3 sequence (Q8TEW8 196-299, limits assumed, looked up): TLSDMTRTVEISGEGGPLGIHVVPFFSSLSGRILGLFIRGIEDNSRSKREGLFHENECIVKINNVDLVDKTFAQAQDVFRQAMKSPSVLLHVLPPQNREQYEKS

DLG1_1, Q12959 = biological target: DLG1_1, Q12959
MAST2, Q6P0Q8 = biological target: MAST2, Q6P0Q8
Sequence of MAST2, Q6P0Q8 (Q6P0Q8 1099-1202): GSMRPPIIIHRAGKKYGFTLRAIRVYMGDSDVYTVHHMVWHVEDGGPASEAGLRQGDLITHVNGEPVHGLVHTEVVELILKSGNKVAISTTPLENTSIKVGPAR

ARHGAP21, Q5T5U3 = biological target: T4, ARHGAP21, Q5T5U3
T4 sequence (Q5T5U3 45-169, limits assumed, looked up): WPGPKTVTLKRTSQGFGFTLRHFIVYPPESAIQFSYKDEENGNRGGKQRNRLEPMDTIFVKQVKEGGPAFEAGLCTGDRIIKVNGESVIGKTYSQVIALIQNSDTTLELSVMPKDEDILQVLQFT

FRMPD4, Q14CM0 = biological target: FRMPD4, Q14CM0
Sequence of FRMPD4, Q14CM0 (Q14CM0 67-160): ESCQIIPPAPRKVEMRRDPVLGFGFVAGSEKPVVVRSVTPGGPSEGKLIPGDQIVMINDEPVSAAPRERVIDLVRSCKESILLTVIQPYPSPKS

PCLO, Q9Y6V0 = biological target: T5, PCLO, Q9Y6V0
T5 sequence (Q9Y6V0 4491-4600, limits assumed, looked up): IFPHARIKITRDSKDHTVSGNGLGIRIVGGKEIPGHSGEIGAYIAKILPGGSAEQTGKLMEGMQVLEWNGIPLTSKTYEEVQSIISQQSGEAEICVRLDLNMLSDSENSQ

Inadl_5, Q8NI35 = biological target: Inadl_5, Q8NI35
Sequence of Inadl_5, Q8NI35 (Q8NI35 673-780): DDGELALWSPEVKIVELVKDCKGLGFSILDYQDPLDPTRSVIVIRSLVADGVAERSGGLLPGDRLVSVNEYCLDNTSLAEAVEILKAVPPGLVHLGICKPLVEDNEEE

IL16_3, Q14005 = biological target: IL16_3, Q14005
Sequence of IL16_3, Q14005 (Q14005 1107-1207): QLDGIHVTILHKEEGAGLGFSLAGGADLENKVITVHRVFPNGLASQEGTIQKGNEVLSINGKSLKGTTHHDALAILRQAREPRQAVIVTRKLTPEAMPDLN

DLG3_3, Q92796 = biological target: T6, DLG3_3, Q92796
T6 sequence (Q92796 374-475, limits assumed, looked up): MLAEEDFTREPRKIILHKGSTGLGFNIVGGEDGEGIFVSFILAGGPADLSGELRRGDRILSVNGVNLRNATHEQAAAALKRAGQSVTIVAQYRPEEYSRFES

LNX1_3, Q8TBB1 = biological target: LNX1_3, Q8TBB1
Sequence of LNX1_3, Q8TBB1 (Q8TBB1 500-596): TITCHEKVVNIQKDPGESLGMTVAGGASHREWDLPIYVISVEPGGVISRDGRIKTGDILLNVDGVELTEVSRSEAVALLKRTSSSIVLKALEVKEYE

TJP1_3, Q07157 = biological target: TJP1_3, Q07157
Sequence of TJP1_3, Q07157 (Q07157 416-512): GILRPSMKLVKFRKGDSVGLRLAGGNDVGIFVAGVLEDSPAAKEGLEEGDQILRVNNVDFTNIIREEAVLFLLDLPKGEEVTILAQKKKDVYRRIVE

LIN7B, Q9HAP6 = biological target: T7, LIN7B, Q9HAP6
T7 sequence (Q9HAP6 88-185, limits assumed, looked up): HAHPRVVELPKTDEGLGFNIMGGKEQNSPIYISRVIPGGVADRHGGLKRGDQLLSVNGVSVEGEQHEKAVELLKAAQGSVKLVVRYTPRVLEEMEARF

LIN7A, O14910 = biological target: T8, LIN7A, O14910
T8 sequence (O14910 103-200, limits assumed, looked up): T7 sequence (Q9HAP6 88-185, limits assumed, looked up) with A2S, I20V, V35I, D42E, Q65H, Q77K, G78D, R89K

DLG2_2, Q15700 = biological target: DLG2_2, Q15700
Sequence of DLG2_2, Q15700 (Q15700 189-283): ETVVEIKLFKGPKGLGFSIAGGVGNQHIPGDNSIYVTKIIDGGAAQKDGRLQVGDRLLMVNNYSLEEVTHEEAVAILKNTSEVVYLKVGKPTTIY

GRIP2_7, Q9C0E4 = biological target: GRIP2_7, Q9C0E4
Sequence of GRIP2_7, Q9C0E4 (Q9C0E4 934-1023): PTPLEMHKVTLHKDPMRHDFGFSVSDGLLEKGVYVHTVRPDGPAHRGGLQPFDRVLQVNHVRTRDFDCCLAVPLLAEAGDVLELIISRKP

PDZD7_3, Q9H5P4 = biological target: T9, PDZD7_3, Q9H5P4
T9 sequence (Q9H5P4 857-944, limits assumed, looked up): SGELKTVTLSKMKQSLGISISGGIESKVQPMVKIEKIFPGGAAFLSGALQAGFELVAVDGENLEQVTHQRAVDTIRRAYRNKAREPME

PICK1, Q9NRD5 = biological target: PICK1, Q9NRD5
Sequence of PICK1, Q9NRD5 (Q9NRD5 17-115): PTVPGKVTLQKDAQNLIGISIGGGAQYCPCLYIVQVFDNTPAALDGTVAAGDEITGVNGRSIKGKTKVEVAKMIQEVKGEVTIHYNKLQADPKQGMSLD

DLG1_3, Q12959 = biological target: DLG1_3, Q12959
TX1BP3, O14907 = biological target: T10, TX1BP3, O14907
T10 sequence (O14907 10-122, limits assumed, looked up): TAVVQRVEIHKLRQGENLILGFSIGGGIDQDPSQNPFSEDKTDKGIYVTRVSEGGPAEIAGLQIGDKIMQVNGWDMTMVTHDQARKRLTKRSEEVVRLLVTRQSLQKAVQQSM

DLG1_2, Q12959 = biological target: DLG1_2, Q12959
Inadl_10, Q8NI35 = biological target: Inadl_10, Q8NI35
Sequence of Inadl_10, Q8NI35 (Q8NI35 1673-1763): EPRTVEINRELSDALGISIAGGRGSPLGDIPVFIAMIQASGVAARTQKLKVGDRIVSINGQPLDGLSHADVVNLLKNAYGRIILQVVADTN

LDB3, O75112 = biological target: LDB3, O75112
Sequence of LDB3, O75112 (O75112 1-94): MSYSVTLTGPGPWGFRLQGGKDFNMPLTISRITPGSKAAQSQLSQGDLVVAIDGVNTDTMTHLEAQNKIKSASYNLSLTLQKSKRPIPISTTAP

[1] = plain residues with an end cap or a label only (N-terminal biotin on a linker: ahx)
[2] = plain residues with an end cap or a label only (N-terminal biotin on a linker: ado-ado)

pKd (MPDZ_5, O75970; [1]): below the threshold | pKd (GRASP, Q7Z6J2; [1]): below the threshold | pKd (GRIP2_3, Q9C0E4; [1]): below the threshold | pKd (SNTG2, Q9NY99; [1]): below the threshold | pKd (MAGI3_2, Q5TCQ9; [1]): below the threshold | pKd (GRIP2_5, Q9C0E4; [1]): below the threshold | pKd (PARD3B_1, Q8TEW8; [1]): below the threshold | pKd (DLG1_1, Q12959; [1]): below the threshold | pKd (MAST2, Q6P0Q8; [1]): 3.89 | pKd (ARHGAP21, Q5T5U3; [1]): below the threshold | pKd (FRMPD4, Q14CM0; [1]): below the threshold | pKd (PCLO, Q9Y6V0; [1]): below the threshold | pKd (Inadl_5, Q8NI35; [1]): below the threshold | pKd (IL16_3, Q14005; [1]): below the threshold | pKd (DLG3_3, Q92796; [1]): below the threshold | pKd (LNX1_3, Q8TBB1; [1]): below the threshold | pKd (TJP1_3, Q07157; [1]): below the threshold | pKd (LIN7B, Q9HAP6; [1]): below the threshold | pKd (LIN7A, O14910; [1]): below the threshold | pKd (DLG2_2, Q15700; [1]): below the threshold | pKd (GRIP2_7, Q9C0E4; [1]): below the threshold | pKd (PDZD7_3, Q9H5P4; [1]): below the threshold | pKd (PICK1, Q9NRD5; [1]): below the threshold | pKd (DLG1_3, Q12959; [1]): below the threshold | pKd (TX1BP3, O14907; [1]): below the threshold | pKd (DLG1_2, Q12959; [1]): below the threshold | pKd (Inadl_10, Q8NI35; [1]): below the threshold | pKd (LDB3, O75112; [1]): below the threshold
B1: NHERF2, Q15599 (peptide)
chain: NRKREIFSNF

pKd (MPDZ_5, O75970; [1]): below the threshold | pKd (GRASP, Q7Z6J2; [1]): 4.14 | pKd (GRIP2_3, Q9C0E4; [1]): below the threshold | pKd (SNTG2, Q9NY99; [1]): 4.32 | pKd (MAGI3_2, Q5TCQ9; [1]): below the threshold | pKd (GRIP2_5, Q9C0E4; [1]): below the threshold | pKd (PARD3B_1, Q8TEW8; [1]): 3.65 | pKd (DLG1_1, Q12959; [1]): below the threshold | pKd (MAST2, Q6P0Q8; [1]): 5.77 | pKd (ARHGAP21, Q5T5U3; [1]): below the threshold | pKd (FRMPD4, Q14CM0; [1]): 3.83 | pKd (PCLO, Q9Y6V0; [1]): below the threshold | pKd (Inadl_5, Q8NI35; [1]): below the threshold | pKd (IL16_3, Q14005; [1]): below the threshold | pKd (DLG3_3, Q92796; [1]): below the threshold | pKd (LNX1_3, Q8TBB1; [1]): below the threshold | pKd (TJP1_3, Q07157; [1]): below the threshold | pKd (LIN7B, Q9HAP6; [1]): below the threshold | pKd (LIN7A, O14910; [1]): 3.66 | pKd (DLG2_2, Q15700; [1]): below the threshold | pKd (GRIP2_7, Q9C0E4; [1]): below the threshold | pKd (PDZD7_3, Q9H5P4; [1]): 4.14 | pKd (PICK1, Q9NRD5; [1]): below the threshold | pKd (DLG1_3, Q12959; [1]): below the threshold | pKd (TX1BP3, O14907; [1]): 4.39 | pKd (DLG1_2, Q12959; [1]): 3.61 | pKd (Inadl_10, Q8NI35; [1]): 3.62 | pKd (LDB3, O75112; [1]): 3.97
B2: TJP3, O95049 (peptide)
chain: GYDWGPATDL

pKd (MPDZ_5, O75970; [2]): below the threshold | pKd (GRASP, Q7Z6J2; [2]): 4 | pKd (GRIP2_3, Q9C0E4; [2]): below the threshold | pKd (SNTG2, Q9NY99; [2]): below the threshold | pKd (MAGI3_2, Q5TCQ9; [2]): below the threshold | pKd (GRIP2_5, Q9C0E4; [2]): below the threshold | pKd (PARD3B_1, Q8TEW8; [2]): 4.06 | pKd (DLG1_1, Q12959; [2]): below the threshold | pKd (MAST2, Q6P0Q8; [2]): 4.73 | pKd (ARHGAP21, Q5T5U3; [2]): below the threshold | pKd (FRMPD4, Q14CM0; [2]): 3.61 | pKd (PCLO, Q9Y6V0; [2]): below the threshold | pKd (Inadl_5, Q8NI35; [2]): below the threshold | pKd (IL16_3, Q14005; [2]): below the threshold | pKd (DLG3_3, Q92796; [2]): below the threshold | pKd (LNX1_3, Q8TBB1; [2]): below the threshold | pKd (TJP1_3, Q07157; [2]): below the threshold | pKd (LIN7B, Q9HAP6; [2]): below the threshold | pKd (LIN7A, O14910; [2]): below the threshold | pKd (DLG2_2, Q15700; [2]): below the threshold | pKd (GRIP2_7, Q9C0E4; [2]): below the threshold | pKd (PDZD7_3, Q9H5P4; [2]): 4.04 | pKd (PICK1, Q9NRD5; [2]): below the threshold | pKd (DLG1_3, Q12959; [2]): below the threshold | pKd (TX1BP3, O14907; [2]): below the threshold | pKd (DLG1_2, Q12959; [2]): below the threshold | pKd (Inadl_10, Q8NI35; [2]): below the threshold | pKd (LDB3, O75112; [2]): below the threshold
B3: TRIM50, Q86XT4 (peptide)
chain: PLSPEQPTKL
